From patent US20080138334A1, “Immune-Derived Moieties Reactive Against Bioactive Lipids, and Methods of Making and Using Same” (priority 2006, published 2008)
Entries after “also recorded” stand apart in the source; their conditions may differ. Like-named read-outs stand apart in the source and are kept apart here.

Assays:
[1] = Direct ELISA, chimeric antibody and mutants binding to S1P; settings: for Binding: antibody concentration 0.1 ug/ml, S1P-coated plate
Protocol: Microtiter ELISA plates (Costar) were coated overnight with S1P diluted in 1 M Carbonate Buffer (pH 9.5) at 37° C. for 1 hr. Plates were washed with PBS (137 mM NaCl, 2.68 mM KCl, 10.1 mM Na2HPO4, 1.76 mM KH2PO4; pH 7.4) and blocked with PBS/BSA/Tween-20 for 1 hr at room temp or overnight at 4° C. For the primary incubation (1 hr at room temp.), a standard curve using the anti-S1P mAb and the samples to be tested for binding was built using the following set of dilutions: 0.4 μg/mL, 0.2 μg/mL, 0.1 μg/mL, 0.05 μg/mL, 0.0125 μg/mL, and 0 μg/mL, and 100 μl added to each well. Plates were washed and incubated with 100 μl per well of HRP conjugated goat anti-mouse (1:20,000 dilution) (Jackson Immuno Research) or HRP conjugated goat anti-human (H+L) diluted 1:50,000 (Jackson Immuno Research) for 1 hr at room temperature. After washing, the enzymatic reaction was detected with tetramethylbenzidine (Sigma) and stopped by adding 1 M H2SO4. The optical density (OD) was measured at 450 nm using a Thermo Multiskan EX. Raw data were transferred to GraphPad software for analysis.
The chromogenic reaction was measured and reported as Optical density (OD). The concentration of the panel of antibodies was 0.1 ug/ml. No interaction of the second antibody with S1P-coated matrix alone was detected.

Caki-1 cells = assay: In vitro IL-8 production, ELISA of culture supernatants; type: cell-based, human; settings: 18:1 LPA (0.2 mM), 24h, non-treated cells
Protocol: Three anti-LPA mAbs (B3, B7 and B58) were tested for their abilities to reduce in vitro IL-8 production compared to a non-specific antibody (NS). Caki-1 cells were seeded in 96 well plates and grown to confluency. After overnight serum starvation, cells were treated with 18:1 LPA (0.2 mM) with or without anti-LPA mAb B3, B7, B58 or NS (Non-Specific). After 24h, cultured supernatants of renal cancer cells (Caki-1), treated with or without LPA and in presence of increasing concentrations of the anti-LPA mAbs B3, B7 and B58, were collected and analyzed for IL-8 levels using a commercially available ELISA kit (Human Quantikine Kit, R&D Systems, Minneapolis, Minn.). […] Similar results were obtained with the other well-known pro-angiogenic factor, VEGF. The inhibition of IL-8 release by the anti-LPA mAbs was also observed in other cancerous cell lines such as the pancreatic cell line Panc-1.

[2] = Competitive ELISA for cross reactivity of anti-S1P mAb, competitor LPA; type: binding; settings: LPA (glycerol backbone)
Protocol: (§1) Screening of serum and cell supernatant for S1P-specific antibodies was by direct ELISA using the thiolated S1P analog described in Example 1 (i.e., compound 10) as the antigen. A standard ELISA was performed, as described below, except that 50 ul of sample (serum or cell supernatant) was diluted with an equal volume of PBS/0.1% Tween-20 (PBST) during the primary incubation. ELISAs were performed in 96-well high binding ELISA plates (Costar) coated with 0.1 μg of chemically-synthesized compound 10 conjugated to BSA in binding buffer (33.6 mM Na2CO3, 100 mM NaHCO3; pH 9.5). The thiolated-S1P-BSA was incubated at 37° C. for 1 hr. at 4° C. overnight in the ELISA plate wells. The plates were then washed four times with PBS (137 mM NaCl, 2.68 mM KCl, 10.14 mM Na2HPO4, 1.76 mM KH2PO4; pH 7.4) and blocked with PBST for 1 hr. at room temperature. For the primary incubation step, 75 uL of the sample (containing the S1P to be measured), was incubated with 25 uL of 0.1 ug/mL anti-S1P mAb diluted in PBST and added to a well of the ELISA plate. […] Optical density of the samples was determined by measurement at 450 nm using an EL- X-800 ELISA plate reader (Bio-Tech).
(§2) For cross reactivity, a competitive ELISA was performed as described above, except for the following alterations (FIG. 4). […] Biotin incorporation was determined as per kit protocol and ranged from 7 to II biotin molecules per antibody. […]

[3] = BIAcore binding kinetics of anti-S1P mAb to immobilized S1P; settings: depending on monovalent or bivalent binding model, read-out: affinity of the monoclonal antibody to S1P
Protocol: Binding kinetics: The binding kinetics of S1P to its receptor or other moieties has, traditionally, been problematic because of the nature of lipids. Many problems have been associated with the insolubility of lipids. For BIAcore measurements, these problems were overcome by directly immobilizing S1P to a BIAcore chip. Antibody was then flowed over the surface of the chip and alterations in […] were measured to determine the binding characteristics of the antibody to S1P. To circumvent the bivalent binding nature of antibodies, S1P was coated on the chip at low densities. Additionally, the chip was coated with various densities of S1P (7, 20, and 1000 RU) and antibody binding data was globally fit to a 1:1 interaction model.

[4] = Competitive ELISA for cross reactivity of anti-S1P mAb, competitor C1P; type: binding; settings: C1P (amino group esterified to a fatty acid)
Protocol: as §1, §2

[5] = Competitive ELISA for cross reactivity of anti-S1P mAb, competitor S1P; type: binding
Protocol: as §1, §2

[6] = ELISA with exchanged crosslinker or protein carrier in the laydown material; type: binding
Source text: For example, the normal crosslinker SMCC was exchanged for IOA in conjugating the thiolated-S1P to BSA as the laydown material in the ELISA. […] Similarly, KLH was exchanged for BSA as the protein that was complexed with thiolated-S1P as the laydown material.

[7] = Competitive ELISA for cross reactivity of anti-S1P mAb, competitor SPC; type: binding; settings: competitor SPC (free phosphate linked with a choline)
Protocol: as §1, §2

[8] = Competitive ELISA for cross reactivity of anti-S1P mAb, competitor DH-S1P; type: binding
Protocol: as §1, §2

Molecule: CysPhe
- binding to S1P compared with the chimeric antibody ([1]; ELISA, substitution of Cys at position 50 of heavy chain): did not alter the binding
- Binding [1]: 2 OD

Molecule: MetLeu
- Binding [1]: 1.6 OD

Molecule: lysophosphatidic acid [LPA]
- increase of the expression of IL-8 (Caki-1 cells): 100%

B1: anti-S1P mAb: murine IgG1 kappa monoclonal antibody against S1P from hybridoma clone 306D326.26 (ATCC SD-5362) (antibody, V domains shown)
VH: QAHLQQSDAELVKPGASVKISCKVSGFIFIDHTIHWMKQRPEQGLEWIGCISPRHDITKYNEMFRGKATLTADKSSTTAYIQVNSLTFEDSAVYFCARGGFYGSTIWFDFWGQGTTLTVS
VL: ETTVTQSPASLSMAIGEKVTIRCITTTDIDDDMNWFQQKPGEPPNLLISEGNILRPGVPSRFSSSGYGTDFLFTIENMLSEDVADYYCLQSDNLPFTFGSGTKLEIK
- antibody binding [2]: no binding
- Kd ([3]; lower end): ~0.088 nM
- Kd ([3]; upper end): ~99 nM
- antibody binding [4]: no antibody binding was observed
- distinction of thiolated-S1P analog (compound 10) from natural S1P ([5]; competition experiment): unable to distinguish
- competition for the mAb binding to S1P on the plate ([5]; competitor free S1P): can compete for binding
- binding characteristics versus BSA laydown ([6]; KLH exchanged for BSA as protein): no significant difference
- binding characteristics versus BSA-SMCC-thiolated-S1P laydown ([6]; SMCC exchanged for IOA): nearly identical
- competition for the mAb binding to S1P on the plate [7]: somewhat reduced; also recorded: only slightly competes for binding
- competition for the mAb binding to S1P on the plate [8]: can compete for binding
